Data reported in paper PMC9352680, “A comprehensive thermodynamic model for RNA binding by the Saccharomyces cerevisiae Pumilio protein PUF4”.

T1: PUF4 RNA-binding domain (Saccharomyces cerevisiae, UniProt P25339 537-888)
T1 sequence: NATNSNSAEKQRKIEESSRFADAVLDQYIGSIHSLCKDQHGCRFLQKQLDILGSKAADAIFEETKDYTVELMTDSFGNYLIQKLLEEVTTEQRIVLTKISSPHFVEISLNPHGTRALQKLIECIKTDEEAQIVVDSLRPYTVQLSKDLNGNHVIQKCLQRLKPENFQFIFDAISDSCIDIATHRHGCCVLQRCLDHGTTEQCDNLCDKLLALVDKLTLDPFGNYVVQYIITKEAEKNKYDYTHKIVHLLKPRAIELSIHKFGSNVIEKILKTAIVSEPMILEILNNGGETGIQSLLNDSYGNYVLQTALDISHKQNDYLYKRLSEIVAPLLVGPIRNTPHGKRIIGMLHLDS


Biological target: T1, PUF4 RNA-binding domain
Test: Mg; RNA-MaP; 20 mM Na-HEPES pH 7.4, 30 mM KOAc, 0.75 mM MgCl2, 0.1% Tween-20, 5% glycerol, 0.1 mg/mL BSA, 2 mM DTT; 25 C; 0.0125-409.6 nM protein
Conditions: tags: N-His6-TEV cleaved; C-SNAP kept, Cy3B-labelled; label: tethered on chip by stalled RNA polymerase

Binder | Kd [nM]
UCUCUUUGUAUUAUUAUUCCUCUCUU (ssRNA) [Ie_S1_P5E.1_K5.1_C5.1_H5.1_A5.1_F5.1_[+10TTCC]_T5.1] | 4.65
Ie_S2_P3E.2_K3.1_C3.2_H3.1_[+1T]_A3.1_F3.1_T3.2 (ssRNA) RNA: UUUGAUUAAUAUGAUAUCGUUCUUUCUCUUUGUAUAUAUAUUCUUUCUCGAUAUCAUAUUAAUCUUU | 1.11
Ie_S2_P3E.2_K3.1_C3.2_H3.1_[+1C]_A3.1_F3.1_T3.2 (ssRNA) RNA: UUUGAUUAAUAUGAUAUCGUUCUUUCUCUUCGUAUAUAUAUUCUUUCUCGAUAUCAUAUUAAUCUUU | 34.5
UCUCUUUGUAUUAUUAUCUCUUCUCUU (ssRNA) [Ie_S1_P5E.1_K5.1_C5.1_H5.1_A5.1_F5.1_[+10TCTCT]_T5.1] | 8.17
UCUCUUUGUAUUAUUAUCCUCUCUU (ssRNA) [Ie_S1_P5E.1_K5.1_C5.1_H5.1_A5.1_F5.1_[+10TCC]_T5.1] | 6.07
UCUCUUUGUAUUAUUAUCUCUCUU (ssRNA) [Ie_S1_P5E.1_K5.1_C5.1_H5.1_A5.1_F5.1_[+10TC]_T5.1] | 4.34
Ie_S2_P3E.2_K3.1_C3.2_[+-2CCC]_H3.1_A3.1_F3.1_T3.2 (ssRNA) RNA: UUUGAUUAAUAUGAUAUCGUUCUUUCUCCCCUUGUAUAUAUAUUCUUUCUCGAUAUCAUAUUAAUCUUU | 0.969
Ie_S2_P3E.2_K3.1_C3.2_[+-2TCC]_H3.1_A3.1_F3.1_T3.2 (ssRNA) RNA: UUUGAUUAAUAUGAUAUCGUUCUUUCUCUCCUUGUAUAUAUAUUCUUUCUCGAUAUCAUAUUAAUCUUU | 0.933
Ie_S2_P3E.2_K3.1_C3.2_H3.1_[+1CCT]_A3.1_F3.1_T3.2 (ssRNA) RNA: UUUGAUUAAUAUGAUAUCGUUCUUUCUCUUCCUGUAUAUAUAUUCUUUCUCGAUAUCAUAUUAAUCUUU | 1.05
Ie_S2_P3E.2_K3.1_C3.2_H3.1_[+1TTC]_A3.1_F3.1_T3.2 (ssRNA) RNA: UUUGAUUAAUAUGAUAUCGUUCUUUCUCUUUUCGUAUAUAUAUUCUUUCUCGAUAUCAUAUUAAUCUUU | 36.5
Ie_S2_P3E.2_K3.1_C3.2_[+-2CCT]_H3.1_A3.1_F3.1_T3.2 (ssRNA) RNA: UUUGAUUAAUAUGAUAUCGUUCUUUCUCCCUUUGUAUAUAUAUUCUUUCUCGAUAUCAUAUUAAUCUUU | 1.07
Ie_S2_P3E.2_K3.1_C3.2_H3.1_[+1TCC]_A3.1_F3.1_T3.2 (ssRNA) RNA: UUUGAUUAAUAUGAUAUCGUUCUUUCUCUUUCCGUAUAUAUAUUCUUUCUCGAUAUCAUAUUAAUCUUU | 44.3
Ie_S2_P3E.2_K3.1_C3.2_[+-2TCT]_H3.1_A3.1_F3.1_T3.2 (ssRNA) RNA: UUUGAUUAAUAUGAUAUCGUUCUUUCUCUCUUUGUAUAUAUAUUCUUUCUCGAUAUCAUAUUAAUCUUU | 1.02
Ie_S2_P3E.2_K3.1_C3.2_H3.1_[+1TTT]_A3.1_F3.1_T3.2 (ssRNA) RNA: UUUGAUUAAUAUGAUAUCGUUCUUUCUCUUUUUGUAUAUAUAUUCUUUCUCGAUAUCAUAUUAAUCUUU | 1.33
Ie_S2_P3E.2_K3.1_C3.2_H3.1_[+1CTT]_A3.1_F3.1_T3.2 (ssRNA) RNA: UUUGAUUAAUAUGAUAUCGUUCUUUCUCUUCUUGUAUAUAUAUUCUUUCUCGAUAUCAUAUUAAUCUUU | 1.32
Ie_S2_P3E.2_K3.1_C3.2_[+-2CTC]_H3.1_A3.1_F3.1_T3.2 (ssRNA) RNA: UUUGAUUAAUAUGAUAUCGUUCUUUCUCCUCUUGUAUAUAUAUUCUUUCUCGAUAUCAUAUUAAUCUUU | 0.846
Ie_S2_P3E.2_K3.1_C3.2_[+-1CCC]_H3.1_A3.1_F3.1_T3.2 (ssRNA) RNA: UUUGAUUAAUAUGAUAUCGUUCUUUCUCUCCCUGUAUAUAUAUUCUUUCUCGAUAUCAUAUUAAUCUUU | 0.662
Ie_S2_P3E.2_K3.1_C3.2_H3.1_[+1CCC]_A3.1_F3.1_T3.2 (ssRNA) RNA: UUUGAUUAAUAUGAUAUCGUUCUUUCUCUUCCCGUAUAUAUAUUCUUUCUCGAUAUCAUAUUAAUCUUU | 31.2
Ie_S2_P3E.2_K3.1_C3.2_H3.1_[+1TCT]_A3.1_F3.1_T3.2 (ssRNA) RNA: UUUGAUUAAUAUGAUAUCGUUCUUUCUCUUUCUGUAUAUAUAUUCUUUCUCGAUAUCAUAUUAAUCUUU | 1.12
Ie_S2_P3E.2_K3.1_C3.2_[+-2CTCT]_H3.1_A3.1_F3.1_T3.2 (ssRNA) RNA: UUUGAUUAAUAUGAUAUCGUUCUUUCUCCUCUUUGUAUAUAUAUUCUUUCUCGAUAUCAUAUUAAUCUUU | 1.08
Ie_S2_P3E.2_K3.1_C3.2_H3.1_[+1CTCT]_A3.1_F3.1_T3.2 (ssRNA) RNA: UUUGAUUAAUAUGAUAUCGUUCUUUCUCUUCUCUGUAUAUAUAUUCUUUCUCGAUAUCAUAUUAAUCUUU | 0.882
Ie_S2_P3E.2_K3.1_C3.2_[+-2CCCT]_H3.1_A3.1_F3.1_T3.2 (ssRNA) RNA: UUUGAUUAAUAUGAUAUCGUUCUUUCUCCCCUUUGUAUAUAUAUUCUUUCUCGAUAUCAUAUUAAUCUUU | 0.468
Ie_S2_P3E.2_K3.1_C3.2_[+-1CTCT]_H3.1_A3.1_F3.1_T3.2 (ssRNA) RNA: UUUGAUUAAUAUGAUAUCGUUCUUUCUCUCUCUUGUAUAUAUAUUCUUUCUCGAUAUCAUAUUAAUCUUU | 0.703

Binder | Kd [nM]
Ie_S2_P3E.2_K3.1_C3.2_[+-2CCTC]_H3.1_A3.1_F3.1_T3.2 (ssRNA) RNA: UUUGAUUAAUAUGAUAUCGUUCUUUCUCCCUCUUGUAUAUAUAUUCUUUCUCGAUAUCAUAUUAAUCUUU | 0.683
Ie_S2_P3E.2_K3.1_C3.2_[+-2TTCC]_H3.1_A3.1_F3.1_T3.2 (ssRNA) RNA: UUUGAUUAAUAUGAUAUCGUUCUUUCUCUUCCUUGUAUAUAUAUUCUUUCUCGAUAUCAUAUUAAUCUUU | 0.819
Ie_S2_P3E.2_K3.1_C3.2_[+-1TTCC]_H3.1_A3.1_F3.1_T3.2 (ssRNA) RNA: UUUGAUUAAUAUGAUAUCGUUCUUUCUCUUUCCUGUAUAUAUAUUCUUUCUCGAUAUCAUAUUAAUCUUU | 1.28
Ie_S2_P3E.2_K3.1_C3.2_[+-1CCTC]_H3.1_A3.1_F3.1_T3.2 (ssRNA) RNA: UUUGAUUAAUAUGAUAUCGUUCUUUCUCUCCUCUGUAUAUAUAUUCUUUCUCGAUAUCAUAUUAAUCUUU | 0.786
Ie_S2_P3E.2_K3.1_C3.2_[+-2CC]_H3.1_A3.1_F3.1_T3.2 (ssRNA) RNA: UUUGAUUAAUAUGAUAUCGUUCUUUCUCCCUUGUAUAUAUAUUCUUUCUCGAUAUCAUAUUAAUCUUU | 1.07
Ie_S2_P3E.2_K3.1_C3.2_H3.1_[+1TC]_A3.1_F3.1_T3.2 (ssRNA) RNA: UUUGAUUAAUAUGAUAUCGUUCUUUCUCUUUCGUAUAUAUAUUCUUUCUCGAUAUCAUAUUAAUCUUU | 39
Ie_S2_P3E.2_K3.1_C3.2_[+-1CC]_H3.1_A3.1_F3.1_T3.2 (ssRNA) RNA: UUUGAUUAAUAUGAUAUCGUUCUUUCUCUCCUGUAUAUAUAUUCUUUCUCGAUAUCAUAUUAAUCUUU | 0.923
Ie_S2_P3E.2_K3.1_C3.2_H3.1_[+1TT]_A3.1_F3.1_T3.2 (ssRNA) RNA: UUUGAUUAAUAUGAUAUCGUUCUUUCUCUUUUGUAUAUAUAUUCUUUCUCGAUAUCAUAUUAAUCUUU | 1.22
Ia_S2_P3E.1_K3.1_C3.1_H3.1_[G2C]_A3.1_F3.1_T3.1 (ssRNA) RNA: UUUGAUUAAUAUGAUAUCGUUCUUUCUUCUAUAUAUUCUUUCUCGAUAUCAUAUUAAUCUUU | 473
Ic_S2_P3E.1_K3.1_C3.1_H3.1_A3.1_[T5A]_F3.1_[T7C]_T3.1 (ssRNA) RNA: UUUGAUUAAUAUGAUAUCGUUCUUUCUUGUAAACAUUCUUUCUCGAUAUCAUAUUAAUCUUU | 327
Ib_S2_P3E.1_K3.1_C3.1_H3.1_A3.1_[A6G]_F3.1_[T7C]_T3.1 (ssRNA) RNA: UUUGAUUAAUAUGAUAUCGUUCUUUCUUGUAUGCAUUCUUUCUCGAUAUCAUAUUAAUCUUU | 198
Ib_S2_P3E.1_K3.1_C3.1_H3.1_A3.1_[T5C]_F3.1_[T7C]_T3.1 (ssRNA) RNA: UUUGAUUAAUAUGAUAUCGUUCUUUCUUGUACACAUUCUUUCUCGAUAUCAUAUUAAUCUUU | 22.4
Ib_S2_P3E.1_K3.1_C3.1_H3.1_A3.1_[T5C]_F3.1_[T7A]_T3.1 (ssRNA) RNA: UUUGAUUAAUAUGAUAUCGUUCUUUCUUGUACAAAUUCUUUCUCGAUAUCAUAUUAAUCUUU | 58.4
Ie_S2_P3E.2_K3.1_C3.2_[+-2TCTCT]_H3.1_A3.1_F3.1_T3.2 (ssRNA) RNA: UUUGAUUAAUAUGAUAUCGUUCUUUCUCUCUCUUUGUAUAUAUAUUCUUUCUCGAUAUCAUAUUAAUCUUU | 1.24
Ie_S2_P3E.2_K3.1_C3.2_[+-1CCCTT]_H3.1_A3.1_F3.1_T3.2 (ssRNA) RNA: UUUGAUUAAUAUGAUAUCGUUCUUUCUCUCCCUUUGUAUAUAUAUUCUUUCUCGAUAUCAUAUUAAUCUUU | 0.572
Ie_S2_P3E.2_K3.1_C3.2_[+-1CCTCT]_H3.1_A3.1_F3.1_T3.2 (ssRNA) RNA: UUUGAUUAAUAUGAUAUCGUUCUUUCUCUCCUCUUGUAUAUAUAUUCUUUCUCGAUAUCAUAUUAAUCUUU | 0.967
Ie_S2_P3E.2_K3.1_C3.2_[+-2CCCTT]_H3.1_A3.1_F3.1_T3.2 (ssRNA) RNA: UUUGAUUAAUAUGAUAUCGUUCUUUCUCCCCUUUUGUAUAUAUAUUCUUUCUCGAUAUCAUAUUAAUCUUU | 0.802
Ie_S2_P3E.2_K3.1_C3.2_[+-1TTCCT]_H3.1_A3.1_F3.1_T3.2 (ssRNA) RNA: UUUGAUUAAUAUGAUAUCGUUCUUUCUCUUUCCUUGUAUAUAUAUUCUUUCUCGAUAUCAUAUUAAUCUUU | 0.987
Ie_S2_P3E.2_K3.1_C3.2_[+-2CCTCT]_H3.1_A3.1_F3.1_T3.2 (ssRNA) RNA: UUUGAUUAAUAUGAUAUCGUUCUUUCUCCCUCUUUGUAUAUAUAUUCUUUCUCGAUAUCAUAUUAAUCUUU | 1.06
Ie_S2_P3E.2_K3.1_C3.2_[+-1TCTCT]_H3.1_A3.1_F3.1_T3.2 (ssRNA) RNA: UUUGAUUAAUAUGAUAUCGUUCUUUCUCUUCUCUUGUAUAUAUAUUCUUUCUCGAUAUCAUAUUAAUCUUU | 1.04
UCUCUUUGUAUUAUUAUUCUCUCUU (ssRNA) [Ie_S1_P5E.1_K5.1_C5.1_H5.1_A5.1_F5.1_[+10TTC]_T5.1] | 5.81
UCUCUUUGUAUUAUUAUUUCUCUU (ssRNA) [Ie_S1_P5E.1_K5.1_C5.1_H5.1_A5.1_F5.1_[+10TT]_T5.1] | 6.42
